{
  "source": "paper PMC4691890",
  "binders": {"B1": {"name": "full-length human Apaf-1 (residues 1–1248), O14727 1-1248 (natural protein)", "chain": "MDAKARNCLLQHREALEKDIKTSYIMDHMISDGFLTISEEEKVRNEPTQQQRAAMLIKMILKKDNDSYVSFYNALLHEGYKDLAALLHDGIPVVSSSSGKDSVSGITSYVRTVLCEGGVPQRPVVFVTRKKLVNAIQQKLSKLKGEPGWVTIHGMAGCGKSVLAAEAVRDHSLLEGCFPGGVHWVSVGKQDKSGLLMKLQNLCTRLDQDESFSQRLPLNIEEAKDRLRILMLRKHPRSLLILDDVWDSWVLKAFDSQCQILLTTRDKSVTDSVMGPKYVVPVESSLGKEKGLEILSLFVNMKKADLPEQAHSIIKECKGSPLVVSLIGALLRDFPNRWEYYLKQLQNKQFKRIRKSSSYDYEALDEAMSISVEMLREDIKDYYTDLSILQKDVKVPTKVLCILWDMETEEVEDILQEFVNKSLLFCDRNGKSFRYYLHDLQVDFLTEKNCSQLQDLHKKIITQFQRYHQPHTLSPDQEDCMYWYNFLAYHMASAKMHKELCALMFSLDWIKAKTELVGPAHLIHEFVEYRHILDEKDCAVSENFQEFLSLNGHLLGRQPFPNIVQLGLCEPETSEVYQQAKLQAKQEVDNGMLYLEWINKKNITNLSRLVVRPHTDAVYHACFSEDGQRIASCGADKTLQVFKAETGEKLLEIKAHEDEVLCCAFSTDDRFIATCSVDKKVKIWNSMTGELVHTYDEHSEQVNCCHFTNSSHHLLLATGSSDCFLKLWDLNQKECRNTMFGHTNSVNHCRFSPDDKLLASCSADGTLKLWDATSANERKSINVKQFFLNLEDPQEDMEVIVKCCSWSADGARIMVAAKNKIFLFDIHTSGLLGEIHTGHHSTIQYCDFSPQNHLAVVALSQYCVELWNTDSRSKVADCRGHLSWVHGVMFSPDGSSFLTSSDDQTIRLWETKKVCKNSAVMLKQEVDVVFQENEVMVLAVDHIRRLQLINGRTGQIDYLTEAQVSCCCLSPHLQYIAFGDENGAIEILELVNNRIFQSRFQHKKTVWHIQFTADEKTLISSSDDAEIQVWNWQLDKCIFLRGHQETVKDFRLLKNSRLLSWSFDGTVKVWNIITGNKEKDFVCHQGTVLSCDISHDATKFSSTSADKTAKIWSFDLLLPLHELRGHNGCVRCSAFSVDSTLLATGDDNGEIRIWNVSNGELLHLCAPLSEEGAATHGGWVTDLCFSPDGKMLISAGGYIKWWNVVTGESSQTFYTNGTNLKKIHVSPDFKTYVTVDNLGILYILQTLE"}},
  "molecular_target": "T1, full-length human Apaf-1 (residues 1–1248) (human), O14727",
  "T1 chain": "B1 chain",
  "test": "cryo-EM structure; apoptosome assembled from full-length Apaf-1 with horse CytC (Sigma) at ~1:2 and 1 mM dATP; ~5 μM on grids; 3.8 Å overall, ~5 Å in the spokes after local masking",
  "conditions": "remark: other sources report otherwise",
  "data": [
    {"binder": "B1", "values": [
      {"measurement": "stoichiometry N", "value": 7}
    ]}
  ]
}
